Measured values from article PMC9727814 (Molecular Biology of the Cell, 2022).

B1: His6-tagged Nup88^517-742 (domain or fragment)
chain: ESPLRILAEAPDSFEKHIKRILQRSAANPALLKSSEKDLAPPPEECLQLISRATQVFREQYILKQDLAKEEIQRRVKLLCDQKRKQLEDLNYCREERKSLREMAERLADKYEEAKEKQEDIMNRMKKVLHSFHTQLPVLSDSERDMKKELQLIPDQLRHLGNAIKQVTMKKDYQQRKMEKVLSPQKPTITLSAYQRKCIQSILKEEGEHIREMVKQINDIRNHVNF
B2: Nup62^322-525 (tags removed, from the co-purified complexes) (domain or fragment)
chain: AVGTTTGPAMTYAQLESLINKWSLELEDQERHFLQQATQVNAWDRTLIENGEKITSLHREVEKVKLDQKRLDQELDFILSQQKELEDLLSPLEESVKEQSGTIYLQHADEEREKTYKLAENIDAQLKRMAQDLKDIIEHLNMAGGPADTSDPLQQICKILNAHMDSLQWVDQSSALLQRRVEEASRVCESRRKEQERSLRIAFD

How the values were obtained:
[1] = target: the molecule itself; experiment: SEC-MALS
[2] = target: T1, Nup88^517-742 (tags removed, from the co-purified complexes) (rat, UniProt O08658 517-742); experiment: SEC-MALS + other: densitometry of SDS-PAGE bands
T1 sequence: B1 chain

| Binder | stoichiometry N [1] | stoichiometry N [2] [Nup62 per Nup88] |
| --- | --- | --- |
| B1 | 2 | – |
| B2 | – | 2 |
